Results from paper PMC2901993 (Biochemical and biophysical research communications, 2010).

Target: T1, translin-associated factor x (trax), mouse, N-terminal 6x-His tag (mouse (M. musculus), UniProt Q9QZE7 1-290)
T1 sequence (looked up): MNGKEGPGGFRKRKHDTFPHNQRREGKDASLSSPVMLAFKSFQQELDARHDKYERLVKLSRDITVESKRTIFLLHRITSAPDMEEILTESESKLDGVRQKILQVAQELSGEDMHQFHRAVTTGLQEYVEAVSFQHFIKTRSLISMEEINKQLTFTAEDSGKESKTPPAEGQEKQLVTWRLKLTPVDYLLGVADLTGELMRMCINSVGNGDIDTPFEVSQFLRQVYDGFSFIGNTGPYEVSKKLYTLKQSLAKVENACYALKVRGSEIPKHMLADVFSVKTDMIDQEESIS
Assay: pull-down

B1: translin (mouse), co-expressed with trax from pETDuet-1 (natural protein, mouse (M. musculus), UniProt Q62348 1-228, looked up)
chain: MSVSEIFVELQGFLAAEQDIREEIRKVVQSLEQTAREILTLLQGVHQGTGFQDIPKRCLKAREHFSTVKTHLTSLKTKFPAEQYYRFHEHWRFVLQRLVFLAAFVVYLETETLVTREAVTEILGIEPDREKGFHLDVEDYLSGVLILASELSRLSVNSVTAGDYSRPLHISTFINELDSGFRLLNLKNDSLRKRYDGLKYDVKKVEEVVYDLSIRGFNKETAAACGEK
With B1 the “stoichiometry N” value was about 1.
